Source: patent US20120141482A1
Where “and” joins values, the source holds several entries; their conditions need not be identical. Identical values can stand only once. Blank lines part the entries; values can stand above or below the substance they belong to.

Columns and labels:
[1] = target: p2Ca/H-2 L^d complex (mouse) (UniProt P01897); assay: flow cytometry competition with constant FITC-30.5.7 Fab on peptide-loaded RMA-S L^d cells
[2] = target: pVSV/H-2 K^b complex (mouse) (UniProt P01901); assay: flow cytometry on T2 K^b cells, control peptide (background)
Sequence of pVSV/H-2 K^b complex (mouse) (P01901 22-369, one chain of several): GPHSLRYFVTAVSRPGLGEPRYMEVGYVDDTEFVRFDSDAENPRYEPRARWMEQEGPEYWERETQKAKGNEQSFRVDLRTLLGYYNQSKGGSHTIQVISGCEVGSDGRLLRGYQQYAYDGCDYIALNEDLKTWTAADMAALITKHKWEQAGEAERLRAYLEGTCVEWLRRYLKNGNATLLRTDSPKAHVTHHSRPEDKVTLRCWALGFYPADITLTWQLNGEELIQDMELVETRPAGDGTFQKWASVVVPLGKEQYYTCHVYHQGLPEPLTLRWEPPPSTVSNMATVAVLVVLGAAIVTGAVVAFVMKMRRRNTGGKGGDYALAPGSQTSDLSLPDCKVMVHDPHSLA

[3] = target: SL9/H-2 L^d complex (mouse) (UniProt P01897); assay: direct flow cytometry on peptide-loaded RMA-S L^d cells
Sequence of SL9/H-2 L^d complex (mouse) (P01897 25-309, one chain of several): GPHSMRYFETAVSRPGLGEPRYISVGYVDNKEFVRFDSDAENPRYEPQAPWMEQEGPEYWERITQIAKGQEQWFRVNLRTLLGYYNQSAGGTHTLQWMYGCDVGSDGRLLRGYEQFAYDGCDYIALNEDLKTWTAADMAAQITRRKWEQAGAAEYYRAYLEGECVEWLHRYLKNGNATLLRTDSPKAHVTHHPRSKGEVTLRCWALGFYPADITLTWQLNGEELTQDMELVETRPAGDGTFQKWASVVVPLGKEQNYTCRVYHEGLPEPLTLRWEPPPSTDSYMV

[4] = target: SIY/H-2 K^b complex (mouse) (UniProt P01901); assay: flow cytometry on peptide-loaded T2 K^b cells
Sequence of SIY/H-2 K^b complex (mouse) (P01901 22-369, one chain of several): as the sequence (P01901 22-369, one chain of several) above

[5] = target: QL9/H-2 L^d complex (mouse) (UniProt P01897); assay: direct flow cytometry on peptide-loaded L^d cells
Sequence of QL9/H-2 L^d complex (mouse) (P01897 25-309, one chain of several): as the sequence (P01897 25-309, one chain of several) above

[6] = target: H-2 L^d loaded with an irrelevant H-2 L^d binding peptide (mouse) (UniProt P01897); assay: direct flow cytometry on RMA-S L^d cells, irrelevant peptide (background)
Sequence of H-2 L^d loaded with an irrelevant H-2 L^d binding peptide (mouse) (P01897 25-309): as the sequence (P01897 25-309, one chain of several) above

[7] = target: p2Ca/H-2 L^d complex (mouse) (UniProt P01897); assay: flow cytometry on L^d cells loaded with graded peptide concentrations; highest value
[8] = target: unloaded H-2 L^d molecules on RMA-S L^d cells (mouse) (UniProt P01897); assay: direct flow cytometry on RMA-S L^d cells, unloaded (background)
Sequence of unloaded H-2 L^d molecules on RMA-S L^d cells (mouse) (P01897 25-309): as the sequence (P01897 25-309, one chain of several) above

[9] = target: QL9/H-2 L^d complex (mouse) (UniProt P01897); assay: flow cytometry, serial dilutions on QL9-loaded RMA-S L^d cells, detected with H57-FITC
SIY/H-2 K^bm3 complex [10] = assay: flow cytometry on peptide-loaded T2 K^bm3 cells
[11] = target: p2Ca/H-2 L^d complex (mouse) (UniProt P01897); assay: flow cytometry, serial dilutions on p2Ca-loaded RMA-S L^d cells, detected with H57-FITC
[12] = target: TCR of 5KC, a moth cytochrome C (MCC)-specific, I-E^k-restricted T cell hybridoma; assay: flow cytometry on 5KC hybridoma cells; reference cells without primary reagent
[13] = target: TCR of 5KC, a moth cytochrome C (MCC)-specific, I-E^k-restricted T cell hybridoma; assay: cell-based or functional assay
[14] = target: TCR of 5KC, a moth cytochrome C (MCC)-specific, I-E^k-restricted T cell hybridoma; assay: flow cytometry on 5KC hybridoma cells
[15] = target: serologically reactive H-2 L^d on RENCA cells (mouse) (UniProt P01897); assay: flow cytometry on unstimulated RENCA cells
[16] = target: serologically reactive H-2 L^d on RENCA cells (mouse) (UniProt P01897); assay: flow cytometry on RENCA cells stimulated with 5-50 units/ml γ-IFN
[17] = target: QL9/H-2 L^d complex (mouse) (UniProt P01897); assay: flow cytometry on L^d cells loaded with graded peptide concentrations; highest value
[18] = target: unloaded H-2 L^d molecules on RMA-S L^d cells (mouse) (UniProt P01897); assay: direct flow cytometry on RMA-S L^d cells without peptide
[19] = target: p2Ca/H-2 L^d complex (mouse) (UniProt P01897); assay: flow cytometry competition with FITC-30.5.7 Fab on peptide-loaded RMA-S L^d cells
[20] = target: SIY/H-2 K^b complex (mouse) (UniProt P01901); assay: cell-based or functional assay
SIY/H-2 K^bm3 complex [21] = assay: cell-based or functional assay
dEV-8/H-2 K^bm3 complex = assay: cell-based or functional assay
[22] = target: p2Ca/H-2 L^d complex (mouse) (UniProt P01897); assay: cell-based or functional assay

Sequence of 2C TCR on 2C CTL (A2KF29 whole entry): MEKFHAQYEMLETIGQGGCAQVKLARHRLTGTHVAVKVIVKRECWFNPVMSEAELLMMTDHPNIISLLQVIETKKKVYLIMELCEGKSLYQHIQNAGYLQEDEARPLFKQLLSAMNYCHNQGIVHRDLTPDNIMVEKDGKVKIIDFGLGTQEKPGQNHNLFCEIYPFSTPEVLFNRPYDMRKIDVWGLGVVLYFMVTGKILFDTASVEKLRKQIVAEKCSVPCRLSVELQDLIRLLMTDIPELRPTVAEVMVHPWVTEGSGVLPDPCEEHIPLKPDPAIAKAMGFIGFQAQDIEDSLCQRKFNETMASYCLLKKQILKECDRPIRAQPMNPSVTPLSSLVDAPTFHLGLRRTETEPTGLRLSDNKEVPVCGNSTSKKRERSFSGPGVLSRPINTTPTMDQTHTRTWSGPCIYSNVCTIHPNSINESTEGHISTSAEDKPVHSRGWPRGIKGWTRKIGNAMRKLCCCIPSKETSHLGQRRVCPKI
Sequence of p2Ca/H-2 L^d complex (mouse) (P01897 25-309, one chain of several): as the sequence (P01897 25-309, one chain of several) above

Substance: soluble divalent 2C TCR/Ig (from UniProt A2KF29)
- Kapp [1]: 108 nM
- MCF [2]: 14 MCF
- MCF [3]: 100 MCF
- MCF [4]: 276 MCF
- MCF [5]: 3000 MCF
- MCF [6]: 10 MCF
- MCF [7]: 600 MCF
- MCF [8]: 10 MCF
- lowest concentration at which binding was detected [9]: < 1 nM
- MCF (SIY/H-2 K^bm3 complex [10]): 36 MCF
- concentration required to detect binding [11]: 3 nM

Substance: mAb 30.5.7 (antibody)
- MCF [15]: 500 MCF
- MCF [16]: 2670 to 3040 MCF
- MCF [7]: 3000 MCF
- MCF [17]: 3000 MCF
- fold increase of mean channel fluorescence, cells at 27° C. against 37° C. [18]: 5 fold

Substance: 2C TCR on 2C CTL (from UniProt A2KF29)
- 2C CTL mediated lysis, LD50 (peptide concentration) [20]: 10 ng/mL
- 2C CTL mediated lysis, LD50 (peptide concentration) (SIY/H-2 K^bm3 complex [21]): 100 ng/mL
- 2C CTL mediated lysis, LD50 (peptide concentration) (dEV-8/H-2 K^bm3 complex): 0.5 ng/mL and 1 ng/mL
- 2C CTL mediated lysis of p2Ca-loaded T2 L^d cells, LD50 (peptide concentration) [22]: 0.5 ng/mL

The remaining lines, values ahead:

- fold increase of mean channel fluorescence [12]: 15 fold
- IL-2 production, fold stimulation over anti-CD3 mAb at 92 ng/ml [13]: 10 fold
- lowest concentration at which specific staining was seen [14]: 5 nM
- mean channel fluorescence [14]: 300 MCF
Substance: soluble divalent ^MCCI-E^k/IgG (peptide-MHC)

- Kapp [1]: > 2000 nM
- concentration required to detect binding [9]: > 100 nM
- concentration required to detect binding [11]: > 3000 nM
- Kd [19]: > 2 µM
Substance: soluble monovalent 2C TCR (from UniProt A2KF29)
